PMC10889563, “The Multienzyme Complex Nature of Dehydroepiandrosterone Sulfate Biosynthesis” (International Journal of Molecular Sciences, 2024)

T1: full-length steroid 17-alpha-hydroxylase/17,20-lyase (CYP17A1full) (UniProt P05093 1-508)
T1 construct: steroid 17-alpha-hydroxylase/17,20 lyase (CYP17A1), full-length recombinant form; also called full-length CYP17A1
T1 sequence (looked up): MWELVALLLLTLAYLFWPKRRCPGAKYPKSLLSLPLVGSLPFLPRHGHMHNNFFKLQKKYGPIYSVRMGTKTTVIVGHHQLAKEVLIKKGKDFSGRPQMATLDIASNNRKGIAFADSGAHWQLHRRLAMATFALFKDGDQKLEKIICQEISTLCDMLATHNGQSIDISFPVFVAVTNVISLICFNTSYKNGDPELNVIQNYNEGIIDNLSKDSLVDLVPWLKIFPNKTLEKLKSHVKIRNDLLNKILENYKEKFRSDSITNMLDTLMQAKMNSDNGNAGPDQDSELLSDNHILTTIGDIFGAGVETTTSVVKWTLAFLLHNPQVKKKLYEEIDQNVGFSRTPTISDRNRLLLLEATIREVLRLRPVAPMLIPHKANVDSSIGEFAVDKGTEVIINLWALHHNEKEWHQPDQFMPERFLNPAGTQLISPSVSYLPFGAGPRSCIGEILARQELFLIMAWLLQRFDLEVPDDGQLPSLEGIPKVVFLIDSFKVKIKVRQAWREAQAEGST

B1: sulfotransferase SULT2A1 (enzyme, human, UniProt Q06520 1-285, looked up)
chain: MSDDFLWFEGIAFPTMGFRSETLRKVRDEFVIRDEDVIILTYPKSGTNWLAEILCLMHSKGDAKWIQSVPIWERSPWVESEIGYTALSETESPRLFSSHLPIQLFPKSFFSSKAKVIYLMRNPRDVLVSGYFFWKNMKFIKKPKSWEEYFEWFCQGTVLYGSWFDHIHGWMPMREEKNFLLLSYEELKQDTGRTIEKICQFLGKTLEPEELNLILKNSSFQSMKENKMSNYSLLSVDYVVDKAQLLRKGVSGDWKNHFTVAQAEDFDKLFQEKMADLPRELFPWE
notes: cytosolic sulfotransferase SULT2A1, human, recombinant; source: E. coli Rosetta, purified (Ni-NTA agarose, hydroxyapatite)
B2: microsomal cytochrome b5 (CYB5A) (natural protein, UniProt P00167 1-134, looked up)
chain: MAEQSDEAVKYYTLEEIQKHNHSKSTWLILHHKVYDLTKFLEEHPGGEEVLREQAGGDATENFEDVGHSTDAREMSKTFIIGELHPDDRPKLNKPPETLITTIDSSSSWWTNWVIPAISAVAVALMYRLYMAED
notes: microsomal cytochrome b5 (CYB5A), recombinant
B3: sulfotransferase SULT1E1 (enzyme, human, UniProt P49888 1-294, looked up)
chain: MNSELDYYEKFEEVHGILMYKDFVKYWDNVEAFQARPDDLVIATYPKSGTTWVSEIVYMIYKEGDVEKCKEDVIFNRIPFLECRKENLMNGVKQLDEMNSPRIVKTHLPPELLPASFWEKDCKIIYLCRNAKDVAVSFYYFFLMVAGHPNPGSFPEFVEKFMQGQVPYGSWYKHVKSWWEKGKSPRVLFLFYEDLKEDIRKEVIKLIHFLERKPSEELVDRIIHHTSFQEMKNNPSTNYTTLPDEIMNQKLSPFMRKGITGDWKNHFTVALNEKFDKHYEQQMKESTLKFRTEI
notes: cytosolic sulfotransferase SULT1E1, human, recombinant; The oligomeric state in the assay is not known to the authors; source: E. coli DH5α, purified (Ni-NTA agarose, hydroxyapatite)

What was measured:
Details in all cases: both partners purified
[1] = molecular target: T2, NADPH-dependent cytochrome P450 reductase (CPR) (UniProt P16435 1-677, FAD and FMN cofactors; species (human assumed, rat possible) and construct limits are only in Figure S5 or cited work); assay: SPR; CPR covalently immobilised on CM5 chip via amino groups; SULT1E1 or SULT2A1 as analyte; HBS-EP+, 25 °C; no PAPS; 1:1 Langmuir model
T2 sequence (P16435 whole entry): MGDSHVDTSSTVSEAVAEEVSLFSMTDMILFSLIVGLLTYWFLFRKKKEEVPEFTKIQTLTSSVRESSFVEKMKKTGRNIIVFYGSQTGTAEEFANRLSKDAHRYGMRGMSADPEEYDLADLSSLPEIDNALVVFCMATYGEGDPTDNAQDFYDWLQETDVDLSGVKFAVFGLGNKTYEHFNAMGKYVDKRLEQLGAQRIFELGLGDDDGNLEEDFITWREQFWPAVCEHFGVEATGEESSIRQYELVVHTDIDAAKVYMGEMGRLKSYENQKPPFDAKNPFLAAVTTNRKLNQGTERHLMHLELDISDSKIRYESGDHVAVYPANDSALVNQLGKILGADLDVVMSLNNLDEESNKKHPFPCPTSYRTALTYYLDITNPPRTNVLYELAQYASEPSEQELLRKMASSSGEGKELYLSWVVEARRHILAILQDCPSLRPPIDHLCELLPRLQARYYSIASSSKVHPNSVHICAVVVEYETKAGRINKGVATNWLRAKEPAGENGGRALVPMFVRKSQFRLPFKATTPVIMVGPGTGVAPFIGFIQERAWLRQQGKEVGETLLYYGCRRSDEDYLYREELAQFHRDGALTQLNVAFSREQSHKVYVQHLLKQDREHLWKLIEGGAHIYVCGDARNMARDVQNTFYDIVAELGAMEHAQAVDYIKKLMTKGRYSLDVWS

[2] = molecular target: T1, full-length steroid …; assay: SPR; SULT1E1 or SULT2A1 covalently immobilised on CM5 chip via amino groups; CYP17A1full or CYB5A injected at 50 to 5000 nM in HBS-EP+, 25 °C; with 1 mM PAPS; 1:1 Langmuir model
[3] = molecular target: T1, full-length steroid …; assay: SPR; SULT1E1 or SULT2A1 covalently immobilised on CM5 chip via amino groups; CYP17A1full, CYP17A1tr or CYB5A injected at 50 to 5000 nM in HBS-EP+ (10 mM HEPES, 150 mM NaCl, 3 mM EDTA, 0.05% P20, pH 7.4), 25 °C; no PAPS; 1:1 Langmuir model
[4] = molecular target: T2, NADPH-dependent cytochrome P450 …; assay: SPR; CPR covalently immobilised on CM5 chip via amino groups; SULT1E1 or SULT2A1 as analyte; HBS-EP+, 25 °C; with 1 mM PAPS; 1:1 Langmuir model
sulfotransferase SULT1E1 [5] = molecular target: B3; assay: SPR; SULT1E1 or SULT2A1 covalently immobilised on CM5 chip via amino groups; CYP17A1full or CYB5A injected at 50 to 5000 nM in HBS-EP+, 25 °C; with 1 mM PAPS; 1:1 Langmuir model
sulfotransferase SULT1E1 [6] = molecular target: B3; assay: SPR; SULT1E1 or SULT2A1 covalently immobilised on CM5 chip via amino groups; CYP17A1full, CYP17A1tr or CYB5A injected at 50 to 5000 nM in HBS-EP+ (10 mM HEPES, 150 mM NaCl, 3 mM EDTA, 0.05% P20, pH 7.4), 25 °C; no PAPS; 1:1 Langmuir model

Binder | Kd [1] | koff [1] | kon [1] | Kd [2] | koff [2] | kon [2] | Kd [3] | koff [3] | kon [3] | Kd [4] | koff [4] | kon [4] | Kd (sulfotransferase SULT1E1 [5]) | koff (sulfotransferase SULT1E1 [5]) | kon (sulfotransferase SULT1E1 [5]) | Kd (sulfotransferase SULT1E1 [6]) | koff (sulfotransferase SULT1E1 [6]) | kon (sulfotransferase SULT1E1 [6])
B1 | 1370 ± 126 nM | 0.00078 s⁻¹ | 570 M⁻¹ s⁻¹ | 105 ± 12 nM | 0.00137 s⁻¹ | 13100 M⁻¹ s⁻¹ | 124 ± 11 nM | 0.00055 s⁻¹ | 4450 M⁻¹ s⁻¹ | 957 ± 89 nM | 0.00051 s⁻¹ | 670 M⁻¹ s⁻¹ |  |  |  |  |  | 
B2 |  |  |  |  |  |  |  |  |  |  |  |  | 88 ± 8 nM | 0.00067 s⁻¹ | 7650 M⁻¹ s⁻¹ | 71 ± 8 nM | 0.00098 s⁻¹ | 13800 M⁻¹ s⁻¹
B3 |  |  |  | 138 ± 15 nM | 0.00076 s⁻¹ | 5520 M⁻¹ s⁻¹ | 196 ± 21 nM | 0.00058 s⁻¹ | 2960 M⁻¹ s⁻¹ |  |  |  |  |  |  |  |  | 
